This series concerns the molecule itself. The series can be described thus: SEC. In general terms: In gel filtration, larger molecules generally elute earlier.

The values below come from publication PMC3299984 (Structure(London, England:1993), 2012).

For orientation: stoichiometry N means a count of units in the complex or per binding partner.

B1: Schistosoma mansoni peroxiredoxin I (thioredoxin peroxidase I), reduced (enzyme)
chain: MVLLPNRPAPEFKGQAVINGEFKEICLKDYRGKYVVLFFYPADFTFVCPTEIIAFSDQVEEFNSRNCQVIACSTDSQYSHLAWDNLDRKSGGLGHMKIPLLADRKQEISKAYGVFDEEDGNAFRGLFIIDPNGILRQITINDKPVGRSVDETLRLLDAFQFVEKHGEVCPVNWKRGQHGIKVNQK
On to B1, for which the “stoichiometry N” value came to 10.
